Source: US20180258153A1 (Novo Nordisk, published 2018)
Non-standard residues stand in square brackets, D forms with d. Groups on a side chain read outwards from the residue. No end group written: not given here. *: point of attachment. C20 diacid = O=C(O)CCCCCCCCCCCCCCCCCCC(=O)*; Desaminohistidyl = O=C(CCc1c[nH]cn1)*; Trx = NC[C@H]1CC[C@H](C(=O)O)CC1; AEEA = NCCOCCOCC(=O)O; Aib = CC(C)(N)C(=O)O

Legend:
[1] = molecular target: T1, human GLP-1 receptor (human, UniProt P43220 24-463); assay: SPA competition, displacement of 125I-GLP-1(7-36)NH2 from BHK membranes with human GLP-1 receptor; high HSA (2.0%)
T1 construct: whole, on cells
Protocol: (§1) For the receptor binding assay in the presence of low HSA (0.005%) 50 μl of the assay buffer was added to each well of an assay plate. […] For the receptor binding assay in the presence of high HSA (2%) 50 μl of the 8% albumin stock was added to each well of an assay plate. […] Cell membrane aliquots were thawed and diluted to their working concentration. Fifty μl were added to each well in the assay plate. […] WGA SPA beads were suspended in assay buffer at 20 mg/ml. The suspension was diluted to 10 mg/ml in assay buffer just prior to addition to the assay plate. Fifty μl were added to each well in the assay plate. […] A 25 μl aliquot was reserved for measuring total counts/well. […] The assay plate was incubated for 2 h at 30° C. […] The assay plate was centrifuged for 10 min. […] The assay plate was read in a Packard TopCount NXT instrument.
(§2) The data from the TopCount instrument were transferred to GraphPad Prism software. Individual replicates were analysed using non-linear regression.

[2] = molecular target: T1, human GLP-1 receptor; assay: SPA competition, displacement of 125I-GLP-1(7-36)NH2 from BHK membranes with human GLP-1 receptor; low HSA (max. 0.001%)
Protocol: as §1, §2

[3] = molecular target: T1, human GLP-1 receptor; assay: cell-based or functional assay

B1: GLP-1 derivative of Example 6 (peptide)
peptide: [Desaminohistidyl][Aib]EGTFTSDVSSYLEEQAAREFIAWLVRGRGGK([AEEA-AEEA-AEEA-AEEA-Lys-code γGlu-Trx-C20 diacid),(γGlu-Trx-C20 diacid])
modifications: also: branched side chain on Lys39: two identical arms on eps-Lys(Bis)
notes: also called Chem. 26; [Imp7,Aib8,Glu22,Arg26,Arg34]-GLP-1-(7-37)-peptidyl-Gly-N{Epsilon}-acylated Lys
IC50 [1]: 140 nM | IC50 [2]: 1 nM | EC50 (pM), in vitro potency, CRE luciferase reporter in BHK cells expressing the human GLP-1 receptor [3]: 150 pM

B2: GLP-1 derivative of Example 1 (peptide)
peptide: HXEGTFTSDVSSYLEEQAAREFIAWLVRGRK
modifications: not fully specified; Aib at position 8 (GLP-1 numbering); epsilon-amino of Lys37 acylated with branched side chain: Pre-linker Ado; Branched linker eps-Lys(Bis); two Post-linkers Trx-gGlu-2xAdo, each carrying a C20 diacid Protractor
notes: also called Chem. 21; N{Epsilon-37}-acylated [Aib8,Glu22,Arg26,Arg34,Lys37]-GLP-1-(7-37)-peptide
IC50 [1]: 140 nM | EC50 (pM), in vitro potency, CRE luciferase reporter in BHK cells expressing the human GLP-1 receptor [3]: 77 pM

B3: GLP-1 derivative of Example 21 (peptide)
peptide: HXEGTFTSDVSSYLEEQAAREFIAWLVRGRK
modifications: not fully specified; Aib at position 8 (GLP-1 numbering); epsilon-amino of Lys37 acylated with branched side chain: Pre-linker 4xAdo; Branched linker eps-Lys(Bis); two Post-linkers Trx-gGlu-Ado, each carrying a C20 diacid Protractor
notes: also called Chem. 41; N{Epsilon-37}-acylated [Aib8,Glu22,Arg26,Arg34,Lys37]-GLP-1-(7-37)-peptide
IC50 [1]: 19 nM | IC50 [2]: 1.5 nM | EC50 (pM), in vitro potency, CRE luciferase reporter in BHK cells expressing the human GLP-1 receptor [3]: 38 pM

B4: GLP-1 derivative of Example 9 (peptide)
peptide: HXEGTFTSDVSSYLEEQAAREFIAWLVRGRK
modifications: not fully specified; Aib at position 8 (GLP-1 numbering); epsilon-amino of Lys37 acylated with branched side chain: Pre-linker 2xeps-Lys; Branched linker eps-Lys(Bis); two Post-linkers Trx-gGlu, each carrying a C20 diacid Protractor
notes: also called Chem. 29; N{Epsilon-37}-acylated [Aib8,Glu22,Arg26,Arg34,Lys37]-GLP-1-(7-37)-peptide
IC50 [1]: 150 nM | IC50 [2]: 1.8 nM | EC50 (pM), in vitro potency, CRE luciferase reporter in BHK cells expressing the human GLP-1 receptor [3]: 120 pM

B5: GLP-1 derivative of Example 13 (peptide)
peptide: HXEGTFTSDVSSYLEEQAAREFIAWLVRGRK
modifications: Aib at position 8 (GLP-1 numbering); epsilon-amino of Lys37 acylated with branched side chain: Pre-linker 8xAdo; Branched linker eps-Lys(Bis); two Post-linkers Trx-gGlu, each carrying a C20 diacid Protractor
notes: also called Chem. 33; N{Epsilon-37}-acylated [Aib8,Glu22,Arg26,Arg34,Lys37]-GLP-1-(7-37)-peptide
IC50 [1]: 32 nM | IC50 [2]: 0.17 nM | EC50 (pM), in vitro potency, CRE luciferase reporter in BHK cells expressing the human GLP-1 receptor [3]: 47 pM

B6: GLP-1 derivative of Example 11 (peptide)
peptide: HXEGTFTSDVSSYLEEQAAREFIAWLVRGRK
modifications: Aib at position 8 (GLP-1 numbering); epsilon-amino of Lys37 acylated with branched side chain: Pre-linker 2xAdo; Branched linker eps-Lys(Bis); two Post-linkers Trx-gGlu, each carrying a C20 diacid Protractor
notes: also called Chem. 31; N{Epsilon-37}-acylated [Aib8,Glu22,Arg26,Arg34,Lys37]-GLP-1-(7-37)-peptide
IC50 [1]: 150 nM | IC50 [2]: 1.5 nM | EC50 (pM), in vitro potency, CRE luciferase reporter in BHK cells expressing the human GLP-1 receptor [3]: 130 pM

B7: GLP-1 derivative of Example 4 (peptide)
peptide: HXEGTFTSDVSSYLEEQAAREFIAWLVRGRK
modifications: not fully specified; Aib at position 8 (GLP-1 numbering); epsilon-amino of Lys37 acylated with branched side chain: Pre-linker dPEG12; Branched linker eps-Lys(Bis); two Post-linkers Trx-gGlu, each carrying a C20 diacid Protractor
notes: also called Chem. 24; N{Epsilon-37}-acylated [Aib8,Glu22,Arg26,Arg34,Lys37]-GLP-1-(7-37)-peptide
IC50 [1]: 51 nM | IC50 [2]: 0.78 nM | EC50 (pM), in vitro potency, CRE luciferase reporter in BHK cells expressing the human GLP-1 receptor [3]: 110 pM

B8: GLP-1 derivative of Example 22 (peptide)
peptide: HXEGTFTSDVSSYLEEQAAREFIAWLVRGRK
modifications: Aib at position 8 (GLP-1 numbering); epsilon-amino of Lys37 acylated with branched side chain: Pre-linker 3xAdo; Branched linker eps-Lys(Bis); two Post-linkers Trx-gGlu-3xAdo, each carrying a C20 diacid Protractor (the printed name gives (4R) for the gGlu of one arm and (4S) for the other)
notes: also called Chem. 42; N{Epsilon-37}-acylated [Aib8,Glu22,Arg26,Arg34,Lys37]-GLP-1-(7-37)-peptide
IC50 [1]: 63 nM | IC50 [2]: 1.4 nM | EC50 (pM), in vitro potency, CRE luciferase reporter in BHK cells expressing the human GLP-1 receptor [3]: 12 pM

B9: GLP-1 derivative of Example 12 (peptide)
peptide: HXEGTFTSDVSSYLEEQAAREFIAWLVRGRK
modifications: Aib at position 8 (GLP-1 numbering); epsilon-amino of Lys37 acylated with branched side chain: Pre-linker 6xAdo; Branched linker eps-Lys(Bis); two Post-linkers Trx-gGlu, each carrying a C20 diacid Protractor
notes: also called Chem. 32; N{Epsilon-37}-acylated [Aib8,Glu22,Arg26,Arg34,Lys37]-GLP-1-(7-37)-peptide
IC50 [1]: 17 nM | IC50 [2]: 0.63 nM | EC50 (pM), in vitro potency, CRE luciferase reporter in BHK cells expressing the human GLP-1 receptor [3]: 57 pM

B10: GLP-1 derivative of Example 14 (peptide)
peptide: HXEGTFTSDVSSYLEEQAAREFIAWLVRGRK
modifications: not fully specified; Aib at position 8 (GLP-1 numbering); epsilon-amino of Lys37 acylated with branched side chain: Pre-linker 2xAdo; Branched linker eps-Lys(Bis); two Post-linkers Trx-gGlu-4xAdo, each carrying a C20 diacid Protractor
notes: also called Chem. 34; N{Epsilon-37}-acylated [Aib8,Glu22,Arg26,Arg34,Lys37]-GLP-1-(7-37)-peptide
IC50 [1]: 27 nM | IC50 [2]: 0.42 nM | EC50 (pM), in vitro potency, CRE luciferase reporter in BHK cells expressing the human GLP-1 receptor [3]: 19 pM
